{
  "source": "patent US20210171580",
  "key": {"[1]": {"tested_on": "M401 (synthetic (M160-nuc A339E))", "sequence (chain, as listed by the source A339E)": "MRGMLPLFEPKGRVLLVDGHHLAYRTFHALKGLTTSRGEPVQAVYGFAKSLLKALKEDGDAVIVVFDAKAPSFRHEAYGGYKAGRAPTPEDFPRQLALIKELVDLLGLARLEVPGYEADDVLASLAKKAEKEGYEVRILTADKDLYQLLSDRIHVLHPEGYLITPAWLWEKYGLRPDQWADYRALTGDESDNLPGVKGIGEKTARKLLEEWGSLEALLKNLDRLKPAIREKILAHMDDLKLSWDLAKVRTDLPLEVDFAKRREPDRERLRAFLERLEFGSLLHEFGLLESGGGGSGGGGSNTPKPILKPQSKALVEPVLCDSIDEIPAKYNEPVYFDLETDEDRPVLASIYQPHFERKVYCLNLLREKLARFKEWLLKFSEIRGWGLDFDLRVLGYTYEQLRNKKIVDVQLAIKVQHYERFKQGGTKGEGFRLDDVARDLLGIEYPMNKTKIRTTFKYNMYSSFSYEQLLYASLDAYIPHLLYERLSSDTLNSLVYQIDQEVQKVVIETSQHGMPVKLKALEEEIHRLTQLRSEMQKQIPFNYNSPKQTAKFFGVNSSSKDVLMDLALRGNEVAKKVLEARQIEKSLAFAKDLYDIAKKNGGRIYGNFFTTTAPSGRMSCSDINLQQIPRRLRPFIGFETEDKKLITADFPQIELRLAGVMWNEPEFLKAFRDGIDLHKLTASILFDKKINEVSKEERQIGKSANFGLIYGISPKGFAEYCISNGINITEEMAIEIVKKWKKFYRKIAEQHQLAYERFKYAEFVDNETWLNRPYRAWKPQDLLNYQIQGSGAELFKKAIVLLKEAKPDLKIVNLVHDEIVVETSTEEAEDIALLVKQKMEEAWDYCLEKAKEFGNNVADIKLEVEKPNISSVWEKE", "conditions": "vs M160-nuc"}, "[2]": {"tested_on": "M403 (synthetic (M160-nuc, both nucleases inactive))", "sequence (chain, as listed by the source)": "as the sequence (chain, as listed by the source A339E) above, with G46D, E339A counted along it", "conditions": "vs M160-nuc"}, "[3]": {"tested_on": "M402 (synthetic (M160-nuc with G46D and 3'-5' exo reactivated))", "sequence (chain, as listed by the source G46D)": "as the sequence (chain, as listed by the source A339E) above, with G46D counted along it", "conditions": "vs M160-nuc"}, "[4]": {"tested_on": "M160-nuc (synthetic (shuffled viral polymerase fused to Taq 5'-3' nuclease domain))", "conditions": "reference"}, "[5]": {"tested_on": "M502 (synthetic (M160-nuc mutant W777C D781A D622N Q627N))", "sequence (chain, as listed by the source W777C D781A D622N Q627N)": "as the sequence (chain, as listed by the source A339E) above, with E339A, D622N, Q627N, W777C, D781A counted along it", "experiment": "EMSA", "conditions": "20 mM Tris pH 8.8, 10 mM NaCl, 5 mM MgCl2, 37 C; at assay sensitivity limit"}, "[6]": {"tested_on": "M160 (synthetic (shuffled viral Family A DNA polymerase))", "experiment": "EMSA", "conditions": "20 mM Tris pH 8.8, 10 mM NaCl, 5 mM MgCl2, 37 C; lacks 5' nuclease domain"}, "[7]": {"tested_on": "M160-nuc (synthetic (shuffled viral polymerase fused to Taq 5'-3' nuclease domain))", "experiment": "EMSA", "conditions": "20 mM Tris pH 8.8, 10 mM NaCl, 5 mM MgCl2, 37 C"}, "[8]": {"tested_on": "M401 (synthetic (M160-nuc A339E))", "experiment": "cleavage_in_vitro", "conditions": "relative to Pfu polymerase, 37 C, 4 mM MgCl2"}, "[9]": {"tested_on": "M402 (synthetic (M160-nuc with G46D and 3'-5' exo reactivated))", "experiment": "cleavage_in_vitro", "conditions": "relative to Pfu polymerase, 37 C, 4 mM MgCl2"}, "[10]": {"conditions": "substrate taken from general polymerase assay"}, "[11]": {"conditions": "50 C, substrate taken from general RT assay"}},
  "data": [
    {"substance": "primed M13mp18 DNA", "values": [
      {"measurement": "relative enzyme activity (relative pol activity)", "setting": "[1]; [10]", "result": 0.91},
      {"measurement": "relative enzyme activity (relative pol activity)", "setting": "[2]; [10]", "result": 0.72},
      {"measurement": "relative enzyme activity (relative pol activity)", "setting": "[3]; [10]", "result": 1.05},
      {"measurement": "relative enzyme activity (relative pol activity)", "setting": "[4]; [10]", "result": 1}
    ]},
    {"substance": "poly(A)/oligo(dT)20", "values": [
      {"measurement": "relative enzyme activity (relative RT activity)", "setting": "[1]; [11]", "result": 1.02},
      {"measurement": "relative enzyme activity (relative RT activity)", "setting": "[2]; [11]", "result": 1.03},
      {"measurement": "relative enzyme activity (relative RT activity)", "setting": "[3]; [11]", "result": 0.98},
      {"measurement": "relative enzyme activity (relative RT activity)", "setting": "[4]; 50 C", "result": 1}
    ]},
    {"substance": "primed-template DNA (Yamagami et al. 2014)", "values": [
      {"measurement": "Kd", "setting": "[5]", "result": "< 6.1", "unit": "nM"},
      {"measurement": "Kd", "setting": "[6]", "result": 946, "unit": "nM"},
      {"measurement": "Kd", "setting": "[7]", "result": 78.9, "unit": "nM"}
    ]},
    {"substance": "59-mer single-stranded oligonucleotide", "values": [
      {"measurement": "relative enzyme activity (relative ssExo activity)", "setting": "[8]", "result": 0.76},
      {"measurement": "relative enzyme activity (relative ssExo activity)", "setting": "[9]", "result": 0.89}
    ]}
  ]
}
